Experimental data from patent US20260167959A1, “APTAZYME-BASED REGULATABLE GENE EXPRESSION SYSTEMS” (REJUVENATE BIO INC, priority 2022, published 2026).

System: Renilla luciferase RNA
Experiment: Barcoded aptazyme variant library screen: un-cleaved Renilla luciferase RNA by barcode read counts, HEK293-T cells
Assay type: cell-based
Conditions: un-cleaved Renilla luciferase RNA, HEK293-T cells cultured with 1 mM theophylline (ON) over without theophylline (OFF); barcode read counts, triplicate
Procedure, shortened: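 Aptazyme variants (seven theophylline aptamers inserted after each T3H48 ribozyme nucleotide, 9-nt barcoded) cloned into the 3′ UTR of Renilla luciferase in psiCHECK-2; cells cultured ± theophylline, in triplicate. RNA and DNA barcodes amplified and sequenced; normalized read counts gave un-cleaved RNA fraction and ON/OFF fold-change.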

Row | Molecule | Fold change in RNA expression between the ON state and the OFF state
1 | RA130 (nucleic acid, expressed or natural sequence) DNA: GCGCGTCCTGGATTCGCGGAAACGCGTACATCCAGCTGAGAATACCAGCATCGTCTTGATGCCCTTGGAAGTCTCGACGAGTCCCAAATAGGACGAAACGCGC | 1.4 fold
2 | RA112 (nucleic acid, expressed or natural sequence) DNA: GCGCGTCCTGGATTCGCGGAAACGCGTACATCCAGGGAATACCAGCATCGTCTTGATGCCCTTGGAAGTCCCTGACGAGTCCCAAATAGGACAAAACGCGC | 1.5 fold
3 | RA119 (nucleic acid, expressed or natural sequence) DNA: GCGCGTCCTGGATTCGCGGAAACGCGTACATCCAGAGAATACCAGCATCGTCTTGATGCCCTTGGAAGTCTCTGACGAGTCCCAAATAGGACGAAACGCGC | 1.5 fold
4 | RA011 (nucleic acid, expressed or natural sequence) DNA: GCGCGTCCTGGATTCGCGGAAACGCGTACATCCAGCTGACGAGTCCCGGAATACCAGCATCGTCTTGATGCCCTTGGAAGTCCGCAAATAGGACGAAACGCGC | 3.6 fold
5 | RA125 (nucleic acid, expressed or natural sequence) DNA: GCGCGTCCTGGATTCGCGGAAACGCGTACATCCAGCTGACGAGTCCCGGAATACCAGCATCGTCTTGATGCCCTTGGAAGTCCGGCCAAATAGGACGAAACGCGC | 1.5 fold
6 | RA118 (nucleic acid, expressed or natural sequence) DNA: GCGCGTCCTGGATTCGCGGAAACGCGTACATCCAGCTGACGAGTCCCAAATAGGACGAGAGAATACCAGCATCGTCTTGATGCCCTTGGAAGTCTCAACGCGC | 1.5 fold
7 | RA115 (nucleic acid, expressed or natural sequence) DNA: GCGCGTCCTGGATTCGCGGAAACGCGTACATCCAGCTGACGAGTCCCAAATAGGACGAGAATACCAGCATCGTCTTGATGCCCTTGGAAGTCTAAACGCGC | 1.5 fold
8 | RA122 (nucleic acid, expressed or natural sequence) DNA: GCGCGTCCTGGATTCGCGGAAACGCGTACATCCAGCTGACGAGTCCCAAATAGGACGAGAATACCAGCATCGTCTTGATGCCCTTGGAAGTCTCGAAACGCGC | 1.5 fold
9 | RA109 (nucleic acid, expressed or natural sequence) DNA: GCGCCGAGAATACCAGCATCGTCTTGATGCCCTTGGAAGTCTCGGTCCTGGATTCGCGGAAACGCGTACATCCAGCTGACGAGTCCCAAATAGGACGAAACGCGC | 1.6 fold
10 | RA121 (nucleic acid, expressed or natural sequence) DNA: GCGCGTCCTGGATTCGAGAATACCAGCATCGTCTTGATGCCCTTGGAAGTCTCGCGGAAACGCGTACATCCAGCTGACGAGTCCCAAATAGGACGAAACGCGC | 1.5 fold
11 | RA110 (nucleic acid, expressed or natural sequence) DNA: GCGCGTCCTGGGGAATACCAGCATCGTCTTGATGCCCTTGGAAGTCCATTCGCGGAAACGCGTACATCCAGCTGACGAGTCCCAAATAGGACGAAACGCGC | 1.6 fold
12 | RA129 (nucleic acid, expressed or natural sequence) DNA: GCGCGTCCTGGATTCCACTTCGGGTACATCCAGCTGACGAGTCCCAAATAGGACGAAACGCGC | 1.4 fold
13 | RA124 (nucleic acid, expressed or natural sequence) DNA: GCGCGTCCTGGATTCGCGGAAACGCGTACATCCAGCTGACGCGGAATACCAGCATCGTCTTGATGCCCTTGGAAGTCCGAGTCCCAAATAGGACGAAACGCGC | 1.5 fold
14 | RA126 (nucleic acid, expressed or natural sequence) DNA: GCGCGTCCTGGATTCGCGGAAACGCGTACAAGAATACCAGCATCGTCTTGATGCCCTTGGAAGTCTTCCAGCTGACGAGTCCCAAATAGGACGAAACGCGC | 1.5 fold
15 | RA106 (nucleic acid, expressed or natural sequence) DNA: GCGCGTCCTGGATTCGCGGAAACGCGTACATCCAGCTGACCGGAATACCAGCATCGTCTTGATGCCCTTGGAAGTCCGGCGAGTCCCAAATAGGACGAAACGCGC | 1.6 fold
16 | RA128 (nucleic acid, expressed or natural sequence) DNA: GCGCGTCCTGGATTCGCGGAAACGCGTAAGTGATACCAGCATCGTCTTGATGCCCTTGGCAGCACTCATCCAGCTGACGAGTCCCAAATAGGACGAAACGCGC | 1.4 fold
17 | RA111 (nucleic acid, expressed or natural sequence) DNA: GCGCGTCCTAGTGATACCAGCATCGTCTTGATGCCCTTGGCAGCACTGGATTCGCGGAAACGCGTACATCCAGCTGACGAGTCCCAAATAGGACGAAACGCGC | 1.6 fold
18 | RA127 (nucleic acid, expressed or natural sequence) DNA: GCGCGTCCTGGATTCGCGGAAACGCGTACATCCAGCTGACGAGTCCCAAATAGGACGAAACGCGCCGGAATACCAGCATCGTCTTGATGCCCTTGGAAGTCCGGC | 1.4 fold
19 | RA123 (nucleic acid, expressed or natural sequence) DNA: GCGCGTCCTGGATTCGCGGAAACGCGTCGGAATACCAGCATCGTCTTGATGCCCTTGGAAGTCCGACATCCAGCTGACGAGTCCCAAATAGGACGAAACGCGC | 1.5 fold
20 | RA108 (nucleic acid, expressed or natural sequence) DNA: GCGCGTCCTGGATTCGCGGCCGGAATACCAGCATCGTCTTGATGCCCTTGGAAGTCCGGAAACGCGTACATCCAGCTGACGAGTCCCAAATAGGACGAAACGCGC | 1.6 fold
21 | RA114 (nucleic acid, expressed or natural sequence) DNA: GCGCGTCCTGGATTCGCGGAAACGCGTACATCCAGCTGACGAGTCCCAAATAGGACGAGGAATACCAGCATCGTCTTGATGCCCTTGGAAGTCCAACGCGC | 1.5 fold
22 | RA107 (nucleic acid, expressed or natural sequence) DNA: GCGCGTCCTGGATTCGCGGAAACGCGTACATCCCGGAATACCAGCATCGTCTTGATGCCCTTGGAAGTCCGAGCTGACGAGTCCCAAATAGGACGAAACGCGC | 1.6 fold
23 | RA116 (nucleic acid, expressed or natural sequence) DNA: GCGCGTCCTGGATTCGCGGAAACGCGTACATCCAGCTGACGAGTCCCAAATAGGGAGAATACCAGCATCGTCTTGATGCCCTTGGAAGTCTCACGAAACGCGC | 1.5 fold
24 | RA010 (nucleic acid, expressed or natural sequence) DNA: GCGCGTCCTGGACGAGAATACCAGCATCGTCTTGATGCCCTTGGAAGTCTCGTTCGCGGAAACGCGTACATCCAGCTGACGAGTCCCAAATAGGACGAAACGCGC | 3.6 fold
25 | RA012 (nucleic acid, expressed or natural sequence) DNA: GCGCGTCCTGGATTCGCGGAAACAGAATACCAGCATCGTCTTGATGCCCTTGGAAGTCTGCGTACATCCAGCTGACGAGTCCCAAATAGGACGAAACGCGC | 3.4 fold
26 | RA117 (nucleic acid, expressed or natural sequence) DNA: GCGCGTCCTGGATCGGAATACCAGCATCGTCTTGATGCCCTTGGAAGTCCGTCGCGGAAACGCGTACATCCAGCTGACGAGTCCCAAATAGGACGAAACGCGC | 1.5 fold
27 | RA113 (nucleic acid, expressed or natural sequence) DNA: GCGCGTCCTGGATTCGCGGAAACGCGTACATCCAGCTGACGAGTCCCAAATAGGACGAAACGCGC | 1.5 fold
28 | RA131 (nucleic acid, expressed or natural sequence) DNA: GCGCGTCCTAGAATACCAGCATCGTCTTGATGCCCTTGGAAGTCTGGATTCGCGGAAACGCGTACATCCAGCTGACGAGTCCCAAATAGGACGAAACGCGC | 1.4 fold
29 | RA120 (nucleic acid, expressed or natural sequence) DNA: GCGCGTCCCCGGAATACCAGCATCGTCTTGATGCCCTTGGAAGTCCGGTGGATTCGCGGAAACGCGTACATCCAGCTGACGAGTCCCAAATAGGACGAAACGCGC | 1.5 fold
